The text below walks through data of the supplement of paper PMC10567573.

B1: KCNA3 (parent)
chain: GERVVINISGLRFETQLKTLCQFP
B2: TRAF3IP2 (parent)
chain: PGQPLPGASVRGLHPVQKVILNYP
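Also: lentivirally expressed fusions sorted by FACS into six bins by GFP to DsRed ratio, PSI derived from sequencing read proportions per bin multiplied by bin number.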

In the first data set the parent is B1. Briefly: protein stability index of a GFP-peptide fusion (GPS, HEK-293T) (PSI 1-6); higher = more stable. The note with it: c terminus: a fixed tail appended.
As for GERVVINISGLRFETQTKTLCQFP [L17T], the protein stability index was found to be 2.85.

For GERVVINISGLRFETQIKTLCQFP [L17I], the protein stability index worked out at 2.92.

The variants in another data set derive from B2. The description is as above. Particulars: c terminus: a fixed tail appended.
On to PGQLLPGASVRGLHPVQKVILNYP [P4L], for which the protein stability index is 2.66.

For the variant PGQDLPGASVRGLHPVQKVILNYP [P4D], the protein stability index stood at 3.03.

Take PGQGLPGASVRGLHPVQKVILNYP [P4G]: the protein stability index was 2.22.

In the case of PGQSLPGASVRGLHPVQKVILNYP [P4S], the protein stability index turned out to be 2.6.

In the case of PGQNLPGASVRGLHPVQKVILNYP [P4N], the protein stability index was 2.06.

PGQFLPGASVRGLHPVQKVILNYP [P4F]: the protein stability index stood at 2.92.

For PGQHLPGASVRGLHPVQKVILNYP [P4H], the protein stability index was found to be 3.08.

With PGQALPGASVRGLHPVQKVILNYP [P4A], the protein stability index is 3.17.

For the variant PGQILPGASVRGLHPVQKVILNYP [P4I], the protein stability index came out at 2.41.

For the variant PGQMLPGASVRGLHPVQKVILNYP [P4M], the protein stability index came to 3.

As to PGQTLPGASVRGLHPVQKVILNYP [P4T], the protein stability index came out at 4.15.

Take PGQCLPGASVRGLHPVQKVILNYP [P4C]: the protein stability index is 2.73.

Regarding PGQKLPGASVRGLHPVQKVILNYP [P4K], the protein stability index turned out to be 2.69.

On to PGQELPGASVRGLHPVQKVILNYP [P4E], for which the protein stability index amounted to 3.52.

Consider PGQVLPGASVRGLHPVQKVILNYP [P4V], for which the protein stability index came to 2.69.

For the variant PGQYLPGASVRGLHPVQKVILNYP [P4Y], the protein stability index was determined as 2.77.

For the variant PGQWLPGASVRGLHPVQKVILNYP [P4W], the protein stability index came out at 2.84.

For PGQRLPGASVRGLHPVQKVILNYP [P4R], the protein stability index stood at 3.21.

On to PGQQLPGASVRGLHPVQKVILNYP [P4Q], for which the protein stability index was 3.29.

Consider PGVPLPGASVRGLHPVQKVILNYP [Q3V], for which the protein stability index came out at 3.42.

For the variant PGAPLPGASVRGLHPVQKVILNYP [Q3A], the protein stability index came to 3.28.

As to PGIPLPGASVRGLHPVQKVILNYP [Q3I], the protein stability index is 2.88.

Turning to PGCPLPGASVRGLHPVQKVILNYP [Q3C], the protein stability index was 2.71.

On to PGNPLPGASVRGLHPVQKVILNYP [Q3N], for which the protein stability index is 3.28.

Turning to PGYPLPGASVRGLHPVQKVILNYP [Q3Y], the protein stability index was found to be 2.41.

Regarding PGEPLPGASVRGLHPVQKVILNYP [Q3E], the protein stability index worked out at 3.65.

As for PGRPLPGASVRGLHPVQKVILNYP [Q3R], the protein stability index was found to be 3.11.

With PGSPLPGASVRGLHPVQKVILNYP [Q3S], the protein stability index was determined as 3.97.

In the case of PGFPLPGASVRGLHPVQKVILNYP [Q3F], the protein stability index came out at 2.42.

On to PGDPLPGASVRGLHPVQKVILNYP [Q3D], for which the protein stability index was found to be 3.15.

For PGLPLPGASVRGLHPVQKVILNYP [Q3L], the protein stability index was determined as 2.96.

Consider PGTPLPGASVRGLHPVQKVILNYP [Q3T], for which the protein stability index is 3.12.

As to PGPPLPGASVRGLHPVQKVILNYP [Q3P], the protein stability index stood at 3.57.

PGGPLPGASVRGLHPVQKVILNYP [Q3G]: the protein stability index is 4.09.

PGMPLPGASVRGLHPVQKVILNYP [Q3M]: the protein stability index stood at 3.34.

For the variant PGWPLPGASVRGLHPVQKVILNYP [Q3W], the protein stability index was 2.31.

For PGKPLPGASVRGLHPVQKVILNYP [Q3K], the protein stability index is 3.09.

As to PGHPLPGASVRGLHPVQKVILNYP [Q3H], the protein stability index was determined as 2.72.

For the variant PHQPLPGASVRGLHPVQKVILNYP [G2H], the protein stability index turned out to be 2.06.

Regarding PVQPLPGASVRGLHPVQKVILNYP [G2V], the protein stability index was determined as 3.21.

Turning to PTQPLPGASVRGLHPVQKVILNYP [G2T], the protein stability index was found to be 3.21.

For the variant PWQPLPGASVRGLHPVQKVILNYP [G2W], the protein stability index was determined as 2.15.

On to PLQPLPGASVRGLHPVQKVILNYP [G2L], for which the protein stability index is 2.23.

PAQPLPGASVRGLHPVQKVILNYP [G2A]: the protein stability index came to 2.89.

As to PQQPLPGASVRGLHPVQKVILNYP [G2Q], the protein stability index is 2.85.

With PSQPLPGASVRGLHPVQKVILNYP [G2S], the protein stability index was determined as 2.81.

As for PEQPLPGASVRGLHPVQKVILNYP [G2E], the protein stability index stood at 3.79.

As to PDQPLPGASVRGLHPVQKVILNYP [G2D], the protein stability index was determined as 4.21.

For the variant PKQPLPGASVRGLHPVQKVILNYP [G2K], the protein stability index was determined as 2.58.

Consider PIQPLPGASVRGLHPVQKVILNYP [G2I], for which the protein stability index worked out at 2.62.

Consider PCQPLPGASVRGLHPVQKVILNYP [G2C], for which the protein stability index stood at 2.22.

PPQPLPGASVRGLHPVQKVILNYP [G2P]: the protein stability index turned out to be 3.35.

For PRQPLPGASVRGLHPVQKVILNYP [G2R], the protein stability index worked out at 3.39.

On to PNQPLPGASVRGLHPVQKVILNYP [G2N], for which the protein stability index worked out at 2.65.

For PFQPLPGASVRGLHPVQKVILNYP [G2F], the protein stability index is 2.92.

In the case of PMQPLPGASVRGLHPVQKVILNYP [G2M], the protein stability index was 2.44.

As for LGQPLPGASVRGLHPVQKVILNYP [P1L], the protein stability index was found to be 2.78.

Turning to SGQPLPGASVRGLHPVQKVILNYP [P1S], the protein stability index was 2.62.

As for VGQPLPGASVRGLHPVQKVILNYP [P1V], the protein stability index is 3.25.

On to EGQPLPGASVRGLHPVQKVILNYP [P1E], for which the protein stability index was determined as 3.31.

On to GGQPLPGASVRGLHPVQKVILNYP [P1G], for which the protein stability index was 2.86.

As to QGQPLPGASVRGLHPVQKVILNYP [P1Q], the protein stability index was found to be 3.47.

Consider IGQPLPGASVRGLHPVQKVILNYP [P1I], for which the protein stability index came out at 2.99.

WGQPLPGASVRGLHPVQKVILNYP [P1W]: the protein stability index is 2.45.

Regarding HGQPLPGASVRGLHPVQKVILNYP [P1H], the protein stability index is 3.31.

As to KGQPLPGASVRGLHPVQKVILNYP [P1K], the protein stability index was 3.02.

For the variant YGQPLPGASVRGLHPVQKVILNYP [P1Y], the protein stability index was found to be 2.49.

As for TGQPLPGASVRGLHPVQKVILNYP [P1T], the protein stability index came to 2.65.

Turning to CGQPLPGASVRGLHPVQKVILNYP [P1C], the protein stability index is 1.73.

Turning to DGQPLPGASVRGLHPVQKVILNYP [P1D], the protein stability index is 2.97.

For the variant FGQPLPGASVRGLHPVQKVILNYP [P1F], the protein stability index was found to be 3.

For NGQPLPGASVRGLHPVQKVILNYP [P1N], the protein stability index was found to be 3.63.

Regarding MGQPLPGASVRGLHPVQKVILNYP [P1M], the protein stability index is 3.

Take PGQPLAGASVRGLHPVQKVILNYP [P6A]: the protein stability index stood at 3.49.

PGQPDPGASVRGLHPVQKVILNYP [L5D]: the protein stability index came out at 3.84.

For PGQPTPGASVRGLHPVQKVILNYP [L5T], the protein stability index was 3.88.

Turning to PGQPGPGASVRGLHPVQKVILNYP [L5G], the protein stability index came to 3.56.

As to PGQPSPGASVRGLHPVQKVILNYP [L5S], the protein stability index stood at 3.43.

Consider PGQPNPGASVRGLHPVQKVILNYP [L5N], for which the protein stability index was determined as 3.66.

Turning to PGQPHPGASVRGLHPVQKVILNYP [L5H], the protein stability index was found to be 3.42.

As to PGQPWPGASVRGLHPVQKVILNYP [L5W], the protein stability index came to 2.94.

Regarding PGQPYPGASVRGLHPVQKVILNYP [L5Y], the protein stability index is 3.48.

PGQPEPGASVRGLHPVQKVILNYP [L5E]: the protein stability index is 3.15.

Turning to PGQPQPGASVRGLHPVQKVILNYP [L5Q], the protein stability index turned out to be 3.95.

For the variant PGQPRPGASVRGLHPVQKVILNYP [L5R], the protein stability index was 3.19.

Turning to PGQPAPGASVRGLHPVQKVILNYP [L5A], the protein stability index amounted to 3.31.

With PGQPKPGASVRGLHPVQKVILNYP [L5K], the protein stability index came to 3.25.

Take PGQPIPGASVRGLHPVQKVILNYP [L5I]: the protein stability index was found to be 3.34.

With PGQPPPGASVRGLHPVQKVILNYP [L5P], the protein stability index was 3.64.

On to PGQPFPGASVRGLHPVQKVILNYP [L5F], for which the protein stability index stood at 2.29.

On to PGQPMPGASVRGLHPVQKVILNYP [L5M], for which the protein stability index was determined as 3.44.

On to PGQPCPGASVRGLHPVQKVILNYP [L5C], for which the protein stability index was determined as 2.94.
